Experimental data reported in patent US20260209372A1.

Target: recombinant human CD30L protein (human) (UniProt P32971)
Assay: ELISA

Chain of recombinant human CD30L protein (human) (P32971 63-234 limits assumed): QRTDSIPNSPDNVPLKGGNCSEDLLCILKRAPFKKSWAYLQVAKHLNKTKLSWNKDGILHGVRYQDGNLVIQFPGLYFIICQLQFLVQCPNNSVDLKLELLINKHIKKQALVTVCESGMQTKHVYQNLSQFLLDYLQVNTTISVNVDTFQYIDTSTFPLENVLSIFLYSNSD

OD: 0.06 OD
B1: Clone 59 (antibody, V domains shown)
VH: QVQLVESGGGVVQPGRSLRLSCAASGFTFSIYGMHWVRQAPGKGLEWVAVIWYDGSNKYYVDSVKGRFTISRDNSKNSLYLQMNSLRAEDTAVYYCAREGNLFDYWGQGTLVTVSS
VL: DIQMTQSPSTLSASVGDRVTITCRASQSISSWLAWYQQKPGKAPKLLIYKASSLESGVPSRFSGSGSGTEFTLTISSLKPDDFATYYCQQYKSYYTFGQGTKLEIK
